The values below come from publication PMC12520364, “UBXN7 facilitates SARS-CoV-2 replication via inhibiting the K48-linked ubiquitination of viral N protein” (PLOS Pathogens, 2025).

The target in experiment [1] is T1, Purified recombinant His-N protein from E. coli (SARS-CoV-2, UniProt P0DTC9 1-419).
T1 construct: SARS-CoV-2 N protein, full-length N gene of NC_045512.2 in pET-28a(+); also called prokaryotic recombinant SARS-CoV-2 N protein; not shown: 6xHis, N-terminal, kept
The experiment is described as follows: pull-down. The note with it: both partners purified.

For experiment [2], the target named is T2, Fc-tagged SARS-CoV-2 N protein (SARS-CoV-2, UniProt P0DTC9 1-419).
T2 construct: also called N-Fc; SARS-CoV-2 N-Fc
The experiment is described as follows: pull-down. The note with it: both partners purified.

B1: purified HA-UBXN7 (natural protein, UniProt O94888 1-489, looked up)
chain: MAAHGGSAASSALKGLIQQFTTITGASESVGKHMLEACNNNLEMAVTMFLDGGGIAEEPSTSSASVSTVRPHTEEEVRAPIPQKQEILVEPEPLFGAPKRRRPARSIFDGFRDFQTETIRQEQELRNGGAIDKKLTTLADLFRPPIDLMHKGSFETAKECGQMQNKWLMINIQNVQDFACQCLNRDVWSNEAVKNIIREHFIFWQVYHDSEEGQRYIQFYKLGDFPYVSILDPRTGQKLVEWHQLDVSSFLDQVTGFLGEHGQLDGLSSSPPKKCARSESLIDASEDSQLEAAIRASLQETHFDSTQTKQDSRSDEESESELFSGSEEFISVCGSDEEEEVENLAKSRKSPHKDLGHRKEENRRPLTEPPVRTDPGTATNHQGLPAVDSEILEMPPEKADGVVEGIDVNGPKAQLMLRYPDGKREQITLPEQAKLLALVKHVQSKGYPNERFELLTNFPRRKLSHLDYDITLQEAGLCPQETVFVQERN
notes: May be the same construct as m1 (pCAGGS-HA); source: purified
With B1, in experiment [1], the binding result was “binds”.

B2: Purified recombinant UBXN7-his protein (natural protein, UniProt O94888 1-489, looked up)
chain: MAAHGGSAASSALKGLIQQFTTITGASESVGKHMLEACNNNLEMAVTMFLDGGGIAEEPSTSSASVSTVRPHTEEEVRAPIPQKQEILVEPEPLFGAPKRRRPARSIFDGFRDFQTETIRQEQELRNGGAIDKKLTTLADLFRPPIDLMHKGSFETAKECGQMQNKWLMINIQNVQDFACQCLNRDVWSNEAVKNIIREHFIFWQVYHDSEEGQRYIQFYKLGDFPYVSILDPRTGQKLVEWHQLDVSSFLDQVTGFLGEHGQLDGLSSSPPKKCARSESLIDASEDSQLEAAIRASLQETHFDSTQTKQDSRSDEESESELFSGSEEFISVCGSDEEEEVENLAKSRKSPHKDLGHRKEENRRPLTEPPVRTDPGTATNHQGLPAVDSEILEMPPEKADGVVEGIDVNGPKAQLMLRYPDGKREQITLPEQAKLLALVKHVQSKGYPNERFELLTNFPRRKLSHLDYDITLQEAGLCPQETVFVQERN
notes: The host of UBXN7-his is therefore told in two ways; also called His-tagged UBXN7; source: HEK293F, transfected, purified (Ni-NTA, Superdex200)
On to B2, for which the binding result in experiment [2] was “binds”.
